T1: PUF4 RNA-binding domain (Saccharomyces cerevisiae, UniProt P25339 537-888)
T1 sequence: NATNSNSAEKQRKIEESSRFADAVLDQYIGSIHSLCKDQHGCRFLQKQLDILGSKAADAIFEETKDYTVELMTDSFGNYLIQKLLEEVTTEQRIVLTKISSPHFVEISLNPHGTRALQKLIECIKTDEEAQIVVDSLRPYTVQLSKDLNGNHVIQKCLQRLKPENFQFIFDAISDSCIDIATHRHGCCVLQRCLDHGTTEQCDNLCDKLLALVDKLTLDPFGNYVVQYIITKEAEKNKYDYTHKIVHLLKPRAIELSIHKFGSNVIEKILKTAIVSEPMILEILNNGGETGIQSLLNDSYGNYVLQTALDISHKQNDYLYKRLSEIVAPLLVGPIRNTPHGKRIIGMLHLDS


Target: T1, PUF4 RNA-binding domain
Experiment: Mg; RNA-MaP; 20 mM Na-HEPES pH 7.4, 30 mM KOAc, 0.75 mM MgCl2, 0.1% Tween-20, 5% glycerol, 0.1 mg/mL BSA, 2 mM DTT; 25 C; 0.0125-409.6 nM protein
Conditions: tags: N-His6-TEV cleaved; C-SNAP kept, Cy3B-labelled; label: tethered on chip by stalled RNA polymerase

Binder	Kd
UCUCUUAGUGUAUAUCUCUU (ssRNA) [Ib_S1_P3E.1_K3.1_C3.1_H3.1_[T1A]_[A4G]_A3.1_F3.1_T3.1]	51.9 nM
UCUCUUUGUACCCGAUUCUCUU (ssRNA) [Ic_S1_P5E.1_K5.1_C5.1_H5.1_A5.1_[T5C]_[T6C]_[A7C]_F5.1_[T8G]_[T9A]_[A10T]_T5.1]	1050 nM
UCUCUUUGUAAACUUUUCUCUU (ssRNA) [Ic_S1_P5E.1_K5.1_C5.1_H5.1_A5.1_[T5A]_[T6A]_[A7C]_F5.1_[A10T]_T5.1]	37.5 nM
UCUCUUUGUACGGUCGUCUCUU (ssRNA) [Ic_S1_P5E.1_K5.1_C5.1_H5.1_A5.1_[T5C]_[T6G]_[A7G]_F5.1_[T9C]_[A10G]_T5.1]	> 2300 nM
UCUCUUUGUACCAUCUUCUCUU (ssRNA) [Ic_S1_P5E.1_K5.1_C5.1_H5.1_A5.1_[T5C]_[T6C]_F5.1_[T9C]_[A10T]_T5.1]	28 nM
UCUCUUUGUACUUCGUUCUCUU (ssRNA) [Ic_S1_P5E.1_K5.1_C5.1_H5.1_A5.1_[T5C]_[A7T]_F5.1_[T8C]_[T9G]_[A10T]_T5.1]	352 nM
UCUCUUUGUAAAAUUGUCUCUU (ssRNA) [Ic_S1_P5E.1_K5.1_C5.1_H5.1_A5.1_[T5A]_[T6A]_F5.1_[A10G]_T5.1]	22.4 nM
UCUCUUUGUAGCACUAUCUCUU (ssRNA) [Ic_S1_P5E.1_K5.1_C5.1_H5.1_A5.1_[T5G]_[T6C]_F5.1_[T8C]_T5.1]	45.5 nM
UCUCUUUGUAUGCAUAUCUCUU (ssRNA) [Ic_S1_P5E.1_K5.1_C5.1_H5.1_A5.1_[T6G]_[A7C]_F5.1_[T8A]_T5.1]	36 nM
UCUCUUUGUACGCCCCUCUCUU (ssRNA) [Ic_S1_P5E.1_K5.1_C5.1_H5.1_A5.1_[T5C]_[T6G]_[A7C]_F5.1_[T8C]_[T9C]_[A10C]_T5.1]	662 nM
UCUCUUUGUAAUGGUAUCUCUU (ssRNA) [Ic_S1_P5E.1_K5.1_C5.1_H5.1_A5.1_[T5A]_[A7G]_F5.1_[T8G]_T5.1]	45.1 nM
UCUCUUUGUACAAUAAUCUCUU (ssRNA) [Ic_S1_P5E.1_K5.1_C5.1_H5.1_A5.1_[T5C]_[T6A]_F5.1_[T9A]_T5.1]	1.94 nM
UCUCUUUGUAUUUGCUUCUCUU (ssRNA) [Ic_S1_P5E.1_K5.1_C5.1_H5.1_A5.1_[A7T]_F5.1_[T8G]_[T9C]_[A10T]_T5.1]	324 nM
UCUCUUUGUAACUCGGUCUCUU (ssRNA) [Ic_S1_P5E.1_K5.1_C5.1_H5.1_A5.1_[T5A]_[T6C]_[A7T]_F5.1_[T8C]_[T9G]_[A10G]_T5.1]	> 2300 nM
UCUCUUUGUAGUCUAAUCUCUU (ssRNA) [Ic_S1_P5E.1_K5.1_C5.1_H5.1_A5.1_[T5G]_[A7C]_F5.1_[T9A]_T5.1]	36 nM
UCUCUUUGUAACCUCGUCUCUU (ssRNA) [Ic_S1_P5E.1_K5.1_C5.1_H5.1_A5.1_[T5A]_[T6C]_[A7C]_F5.1_[T9C]_[A10G]_T5.1]	123 nM
UCUCUUUGUACAAUUCUCUCUU (ssRNA) [Ic_S1_P5E.1_K5.1_C5.1_H5.1_A5.1_[T5C]_[T6A]_F5.1_[A10C]_T5.1]	12.1 nM
UCUCUUUGUAUAAAUCUCUU (ssRNA) [Ia_S1_P3E.1_K3.1_C3.1_H3.1_A3.1_F3.1_[T7A]_T3.1]	50.4 nM
UCUCUUUGUAACCCAAUCUCUU (ssRNA) [Ic_S1_P5E.1_K5.1_C5.1_H5.1_A5.1_[T5A]_[T6C]_[A7C]_F5.1_[T8C]_[T9A]_T5.1]	1740 nM
UCUCUUUGUAAACUAUUCUCUU (ssRNA) [Ic_S1_P5E.1_K5.1_C5.1_H5.1_A5.1_[T5A]_[T6A]_[A7C]_F5.1_[T9A]_[A10T]_T5.1]	2.36 nM
UCUCUUUGUACCAGCUUCUCUU (ssRNA) [Ic_S1_P5E.1_K5.1_C5.1_H5.1_A5.1_[T5C]_[T6C]_F5.1_[T8G]_[T9C]_[A10T]_T5.1]	747 nM
UCUCUUUGUACCUUGGUCUCUU (ssRNA) [Ic_S1_P5E.1_K5.1_C5.1_H5.1_A5.1_[T5C]_[T6C]_[A7T]_F5.1_[T9G]_[A10G]_T5.1]	103 nM

Binder	Kd
UCUCUUCGUGUAUAUCUCUU (ssRNA) [Ib_S1_P3E.1_K3.1_C3.1_H3.1_[T1C]_[A4G]_A3.1_F3.1_T3.1]	26.7 nM
UCUCUUUGUAAUUUUCUCUCUU (ssRNA) [Ic_S1_P5E.1_K5.1_C5.1_H5.1_A5.1_[T5A]_[A7T]_F5.1_[A10C]_T5.1]	29.8 nM
UCUCUUUGUAAUAAUUUCUCUU (ssRNA) [Ic_S1_P5E.1_K5.1_C5.1_H5.1_A5.1_[T5A]_F5.1_[T8A]_[A10T]_T5.1]	324 nM
UCUCUUUGUAAAUUGUUCUCUU (ssRNA) [Ic_S1_P5E.1_K5.1_C5.1_H5.1_A5.1_[T5A]_[T6A]_[A7T]_F5.1_[T9G]_[A10T]_T5.1]	11.5 nM
UCUCUUUGUACCAGUCUCUCUU (ssRNA) [Ic_S1_P5E.1_K5.1_C5.1_H5.1_A5.1_[T5C]_[T6C]_F5.1_[T8G]_[A10C]_T5.1]	363 nM
UCUCUUUGUAUGUGGUUCUCUU (ssRNA) [Ic_S1_P5E.1_K5.1_C5.1_H5.1_A5.1_[T6G]_[A7T]_F5.1_[T8G]_[T9G]_[A10T]_T5.1]	421 nM
UCUCUUUGUAUUUAAUUCUCUU (ssRNA) [Ic_S1_P5E.1_K5.1_C5.1_H5.1_A5.1_[A7T]_F5.1_[T8A]_[T9A]_[A10T]_T5.1]	46.2 nM
UCUCUUUGUAACGACUUCUCUU (ssRNA) [Ic_S1_P5E.1_K5.1_C5.1_H5.1_A5.1_[T5A]_[T6C]_[A7G]_F5.1_[T8A]_[T9C]_[A10T]_T5.1]	> 2300 nM
UCUCUUUGUACACUCCUCUCUU (ssRNA) [Ic_S1_P5E.1_K5.1_C5.1_H5.1_A5.1_[T5C]_[T6A]_[A7C]_F5.1_[T9C]_[A10C]_T5.1]	7.65 nM
UCUCUUUGUAUUUGCGUCUCUU (ssRNA) [Ic_S1_P5E.1_K5.1_C5.1_H5.1_A5.1_[A7T]_F5.1_[T8G]_[T9C]_[A10G]_T5.1]	659 nM
UCUCUUUGUACAGCAUUCUCUU (ssRNA) [Ic_S1_P5E.1_K5.1_C5.1_H5.1_A5.1_[T5C]_[T6A]_[A7G]_F5.1_[T8C]_[T9A]_[A10T]_T5.1]	23.4 nM
UCUCUUUGUAUGACCAUCUCUU (ssRNA) [Ic_S1_P5E.1_K5.1_C5.1_H5.1_A5.1_[T6G]_F5.1_[T8C]_[T9C]_T5.1]	1110 nM
UCUCUUUGUAAACUGUUCUCUU (ssRNA) [Ic_S1_P5E.1_K5.1_C5.1_H5.1_A5.1_[T5A]_[T6A]_[A7C]_F5.1_[T9G]_[A10T]_T5.1]	12.6 nM
UCUCUUUGUAUGUACUUCUCUU (ssRNA) [Ic_S1_P5E.1_K5.1_C5.1_H5.1_A5.1_[T6G]_[A7T]_F5.1_[T8A]_[T9C]_[A10T]_T5.1]	64.7 nM
UCUCUUAGCAUAUAUCUCUU (ssRNA) [Ib_S1_P3E.1_K3.1_C3.1_H3.1_[T1A]_[T3C]_A3.1_F3.1_T3.1]	> 2300 nM
UCUCUUUGUAGCAUAGUCUCUU (ssRNA) [Ic_S1_P5E.1_K5.1_C5.1_H5.1_A5.1_[T5G]_[T6C]_F5.1_[T9A]_[A10G]_T5.1]	9.57 nM
UCUCUUUGUAAUCUCUUCUCUU (ssRNA) [Ic_S1_P5E.1_K5.1_C5.1_H5.1_A5.1_[T5A]_[A7C]_F5.1_[T9C]_[A10T]_T5.1]	440 nM
UCUCUUUGUACGCGUCUCUCUU (ssRNA) [Ic_S1_P5E.1_K5.1_C5.1_H5.1_A5.1_[T5C]_[T6G]_[A7C]_F5.1_[T8G]_[A10C]_T5.1]	1980 nM
UCUCUUUGUAUUCGGUUCUCUU (ssRNA) [Ic_S1_P5E.1_K5.1_C5.1_H5.1_A5.1_[A7C]_F5.1_[T8G]_[T9G]_[A10T]_T5.1]	578 nM
UCUCUUUGUAAACUAAUCUCUU (ssRNA) [Ic_S1_P5E.1_K5.1_C5.1_H5.1_A5.1_[T5A]_[T6A]_[A7C]_F5.1_[T9A]_T5.1]	3.01 nM
UCUCUUUGUAUGGUUUUCUCUU (ssRNA) [Ic_S1_P5E.1_K5.1_C5.1_H5.1_A5.1_[T6G]_[A7G]_F5.1_[A10T]_T5.1]	159 nM
UCUCUUUGUAAAUAACUCUCUU (ssRNA) [Ic_S1_P5E.1_K5.1_C5.1_H5.1_A5.1_[T5A]_[T6A]_[A7T]_F5.1_[T8A]_[T9A]_[A10C]_T5.1]	31.1 nM

Binder	Kd
UCUCUUUGUAAAACCGUCUCUU (ssRNA) [Ic_S1_P5E.1_K5.1_C5.1_H5.1_A5.1_[T5A]_[T6A]_F5.1_[T8C]_[T9C]_[A10G]_T5.1]	1190 nM
UCUCUUUGUACCAGUGUCUCUU (ssRNA) [Ic_S1_P5E.1_K5.1_C5.1_H5.1_A5.1_[T5C]_[T6C]_F5.1_[T8G]_[A10G]_T5.1]	470 nM
UCUCUUUCGAUAUAUCUCUU (ssRNA) [Ib_S1_P3E.1_K3.1_C3.1_H3.1_[G2C]_[T3G]_A3.1_F3.1_T3.1]	> 2300 nM
UCUCUUUGUAUUUCGUUCUCUU (ssRNA) [Ic_S1_P5E.1_K5.1_C5.1_H5.1_A5.1_[A7T]_F5.1_[T8C]_[T9G]_[A10T]_T5.1]	370 nM
UCUCUUUGUAAGUAACUCUCUU (ssRNA) [Ic_S1_P5E.1_K5.1_C5.1_H5.1_A5.1_[T5A]_[T6G]_[A7T]_F5.1_[T8A]_[T9A]_[A10C]_T5.1]	> 2300 nM
UCUCUUUGUAUAUCAUCUCUU (ssRNA) [Ic_S1_P4E.1_K4.1_C4.1_H4.1_A4.1_F4.1_[T8C]_T4.1]	8.57 nM
UCUCUUUGUAAGCUGCUCUCUU (ssRNA) [Ic_S1_P5E.1_K5.1_C5.1_H5.1_A5.1_[T5A]_[T6G]_[A7C]_F5.1_[T9G]_[A10C]_T5.1]	604 nM
UCUCUUUGUACCAAACUCUCUU (ssRNA) [Ic_S1_P5E.1_K5.1_C5.1_H5.1_A5.1_[T5C]_[T6C]_F5.1_[T8A]_[T9A]_[A10C]_T5.1]	68.1 nM
UCUCUUUGUAACCCAUUCUCUU (ssRNA) [Ic_S1_P5E.1_K5.1_C5.1_H5.1_A5.1_[T5A]_[T6C]_[A7C]_F5.1_[T8C]_[T9A]_[A10T]_T5.1]	711 nM
UCUCUUUGUAGUAUAUUCUCUU (ssRNA) [Ic_S1_P5E.1_K5.1_C5.1_H5.1_A5.1_[T5G]_F5.1_[T9A]_[A10T]_T5.1]	8.21 nM
UCUCUUUGUAAAACGGUCUCUU (ssRNA) [Ic_S1_P5E.1_K5.1_C5.1_H5.1_A5.1_[T5A]_[T6A]_F5.1_[T8C]_[T9G]_[A10G]_T5.1]	625 nM
UCUCUUUCCAUAUAUCUCUU (ssRNA) [Ib_S1_P3E.1_K3.1_C3.1_H3.1_[G2C]_[T3C]_A3.1_F3.1_T3.1]	> 2300 nM
UCUCUUUGUAAAUUUUUCUCUU (ssRNA) [Ic_S1_P5E.1_K5.1_C5.1_H5.1_A5.1_[T5A]_[T6A]_[A7T]_F5.1_[A10T]_T5.1]	22.4 nM
UCUCUUUGUAUACCCUUCUCUU (ssRNA) [Ic_S1_P5E.1_K5.1_C5.1_H5.1_A5.1_[T6A]_[A7C]_F5.1_[T8C]_[T9C]_[A10T]_T5.1]	103 nM
UCUCUUUGUAUUUGCCUCUCUU (ssRNA) [Ic_S1_P5E.1_K5.1_C5.1_H5.1_A5.1_[A7T]_F5.1_[T8G]_[T9C]_[A10C]_T5.1]	568 nM
UCUCUUUGUAAUCUGAUCUCUU (ssRNA) [Ic_S1_P5E.1_K5.1_C5.1_H5.1_A5.1_[T5A]_[A7C]_F5.1_[T9G]_T5.1]	83.4 nM
UCUCUUUGUACCAUUUUCUCUU (ssRNA) [Ic_S1_P5E.1_K5.1_C5.1_H5.1_A5.1_[T5C]_[T6C]_F5.1_[A10T]_T5.1]	7.08 nM
UCUCUUUGUACCGGCCUCUCUU (ssRNA) [Ic_S1_P5E.1_K5.1_C5.1_H5.1_A5.1_[T5C]_[T6C]_[A7G]_F5.1_[T8G]_[T9C]_[A10C]_T5.1]	> 2300 nM
UCUCUUUGUAACGGUCUCUCUU (ssRNA) [Ic_S1_P5E.1_K5.1_C5.1_H5.1_A5.1_[T5A]_[T6C]_[A7G]_F5.1_[T8G]_[A10C]_T5.1]	> 2300 nM
UCUCUUGGUCUAUAUCUCUU (ssRNA) [Ib_S1_P3E.1_K3.1_C3.1_H3.1_[T1G]_[A4C]_A3.1_F3.1_T3.1]	> 2300 nM
